The source of these data is the DeepSol protein solubility set.

This data set can be described thus: soluble on expression in E. coli; label from the status in PepcDB or PDB records.
As for “MKVEKFKVLLYLKKSEPDKNGKAPIMGRITLNRTMAQFSCKLSCTPELWNARESRLNGKSRKAVETNEKIERLLLAVHSAFNSLMERKKDFDAAAVRDMFQGNAGIQMTLLKLLDRHNGEMKARVGVDRAPTTLSTYLFTYRTLSEFIKAKFKVSDLAFGQLNEQFIRDYQDFILMEKGHAVDTLRGYLAILKKICRIAYKEGHSEKYHFCHFKLPKQKESTPKALSRENFEKLRDLEIPEKRRSHVITRDLFLFACYTGTAYADVVSITRENLFTDEENNLWLKYRRKKTNYLGRVKLLPEALVLIEKYRDDARMTLFPPQDYHTLRANMKSLRLMAGLSQDLVYHTARHSFASLITLEEGVPIETISKMLGHSNIKTTQIYARVTPKRLFEDMDRFIEATRDLKLIL”, the “soluble on expression in E. coli” value was “not soluble”.

As for “MDALSRLLTLNAPQGSIDKNCPLGGDWQLPHAAGELSVIRWHTVTQGEAQLEMPTGDAMTLTPGKVVILPQNSAHRLRQSGESPTHIVCGSLRLHTTSRYFLTALPEVLCLAPPPHSPASIWINATILLLQQESERHLPGADVLYSQQCATLFTLAVRDWLSQAGTAKSVLNLLLHPRLGRVILHMLETPAHPWTVETLAQRVHMSRASFAQLFRDVSATTPLAVLTTLRLQIAAQTLSREVLPVMVIAESVGYASESSFHKAFVREFGCTPGEYRKRVSALGR”, the “soluble on expression in E. coli” value is “not soluble”.

On to “MQLKRVAEAKLPTPWGDFLMVGFEELATGHDHLALIFGDISGDKPVLSRVHSECLTGDALFSLRCDCGFQLEVALTRIAEEGRGVLIYHRQEGRNIGLLNKIRAYALQDLGADTVEANHQLGFAADERDFTLCSDMYKLLGIKAVRLLTNNPKKVEILTQAGINIVERVPLIVGENPKNEHYLATKAAKMGHLLTK”, for which the “soluble on expression in E. coli” value is on record as “not soluble”.

Consider “QPPQFKLDPRLARLLGIHTQTRPVIIQALWQYIKTHKLQDPHEREFVLCDKYLQQIFESQRMKFSEIPQRLHALLMPPEP”, for which the “soluble on expression in E. coli” value was “soluble”.

For “MGSDKIHHHHHHMMDTVKNRRTIRKYQQKDITPDLLNDLLETSFRASTMGGMQLYSVVVTRDAEKKEILSPAHFNQPMVKEAPVVLTFCADFRRFCKYCQERNAVPGYGNLMSFLNAAMDTLLVAQTFCTLAEEAGLGICYLGTTTYNPQMIIDALHLPELVFPITTVTVGYPAESPKQVDRLPIEGIIHEESYHDYTAEDINRLYAYKESLPENKLFIEENQKETLPQVFTDVRYTKKDNEFMSENLLKVLRRQGFMD”, the “soluble on expression in E. coli” value is given as “not soluble”.

With “AHHHHHHGSDGLTAQEFLTLVKLERGMYLSKEEKDDVERIKEKNKRVLELIKDHHKDFDVYLTGHIDFDNLLTMYEIYKELKKRGVNVYYPGLFWANWREKGEIEYKIKNNAKILLVITQTISFGTSVDVGFFIHRKINEEEAKIVFCYTGPSYEFESLKTHPASIYIDYFTRDIEDAIEKTLEFLSL”, the “soluble on expression in E. coli” value is “soluble”.

“SGIVVSPILIPENQRQPFPRDVGKVVDSDRPEGSKFRLTGKGVDQDPKGTFRINENTGSVSVTRTLDRETIATYQLYVETTDASGKTLEGPVPLEVIVID”: the “soluble on expression in E. coli” value is given as “soluble”.

Turning to “MGSDKIHHHHHHMHAWESIQITLDLIEANLSEEISINELANKANLSPFYYQRLFKRLVNKTVMEYIKLRRLARASEYLAEHKNRILDVALNFGFASHETFTRSFKKAYGLTPEKYRANPVKLNHFIKPELILNYAMVDEGVPLIADDIVIEVNRKTLSNPRTFVGIEIEVPICQLVGGETTGIAIVEELWMKLGSQRHNIPNQIPGGNEFAALYMGNAKEGNCMYMAGVEVESGTSVEGYSTFELPVKEYLVCGFEAENFNELVNSAVFKADKFMERWMKKHNLTTTDFAIEMYYPTTPEAAYLEHWIVPVPIEQ”, the “soluble on expression in E. coli” value is on record as “not soluble”.

Regarding “IDLSNALPGSRRGFLKGAAVVGLTIGFQWSGARRALAAALPDAGFAPNAFLRIAPDDSVTVIAKHVEMGQGAYTGIATIVAEELDADWSKVRVESAPADAKRYANLAFGTMQGTGGSSAMANSWMQLREAGAKARAMLVEAAARQWQVPAAELRTRDGFVEHPTSQRKASYGSLAAAAAELPVPEKVQLKDPKDFRLIGHQAPRVDVPGKTDGSAQFTLDVSLPGMLVALLQRPPLFGATVKSFDATATRAIPGVVEVVQVPHGVAVVAKGFWAAKQGRDALKVEWDESKAEKRGSEALMAEYRKLAEQPGKPARRDGDAAKAVAGATRRIAASYEFPFLAHAPMEPLDAVVRLTADSCEIWAGDQFQTVDQGNAARTAGLKPEQVKINTLYAGGSFGRRANAWSDYIVEAVSIAKALGANGVPVKLQWTREDDIHGGFYRPMYYHRLEAGLDADGKLVGWQHRIVGQSILEGTPFAAVMVKDGIDATSVEGAANLPYAVPNVSVELSTTQVGVPVLWWRVVGSSHTVYAVEAFIDEAAQAAGKDPYLFRRDLLAEQPRLRGVLELAAEKAGWDPSRPLPAGRGRGIAVTEAFKTFVAQVVEVSVDKDGKLKVERVVCAVDCGIPINPDVIAAQMEGGIGFGLGAILHSAITLKDGKVEQNNFDGYQVLRIAEMPKVEVHIVPSGEAPTGVGEPGVAPIGPALANAIFAATGQRLYNLPFPTSFA”, the “soluble on expression in E. coli” value is “not soluble”.

On to “GPGSSLMFSRPPSKLSGAPTREDLDEIIAEEVREWVAKMVGVKHNADVWSMPNFVDALRSGVLLHVLLQKMESPPVSDEDLKLPKRTTGFFVRDNVATFLTTAKSRYDLVDAQLFTVSDLVDGKNDRQVVTCLMSIARIAYSAGAIK”, for which the “soluble on expression in E. coli” value is listed as “not soluble”.

In the case of “MAHHHHHHMFKTMMFKTMRNYFMLNFKRNYRHYSRKKNINNINRKMNDPYSDLYKMNYYGNNFKRLPNKKTKSNEYELIRTSSNSFTYSSPYPPNINYTLKPYPDSAKEFYYENRKYVMKYKNVEYIPIKRMVCKGMSRRSNWDTYYLRVEK”, the “soluble on expression in E. coli” value is reported as “not soluble”.

Take “MKKYIALAWVCLALTDVMAQKQKVVEKVVDEDYYPVEGAVVTLKRTNQNATTDKDGVFILEEVPVYFDSLQVKKGKRSGYIDLPMRIQMRTQVMQRFSWSVKAGIGAGKFMQGPESKLKDGFSIYGGVGADIRMSKHWAFQPSLLLVSRKMKGYDFYGYYAENNGDGSSSASYEQVSGTYNPFYLEIPLLFALKYRVGNDMNLVFSFGPYIDLGLSGDEKREYIKHYYDTMEGNKTESVTNSRSLFGKRFTGGFAYGIGVEYGRFLIGGTGRVGCTSWNHSEGFIDVAFEIGYRF”: the “soluble on expression in E. coli” value is given as “not soluble”.

With “MRVNDVNLMRYIQQLSLERKAPTPGSFLFNTVSELAVQQKLRGQIEGYKTTLSQIYNGIGLLNTANAGLESISTALQRARELAVQASNATLTDVERSMIQKEYEEIMRGVKRIIQQTTYNEQRVLAGDVRNLVIQTGPNEGQNVTVNIPNLEETLSELFEVDLSTFEGAQRSLETIDQALENISQIRGNVGSWMNRLESSARSVMNSYTELFKTESLFEPSVAELLLESTKEDILRQTALTGILFRMENAGNVLKLLM”, the “soluble on expression in E. coli” value was “not soluble”.

With “MGGRSAQPRRFSFACRILHPAVAHDAMAGSRYILRAPASIIRLAQHGWLHCCLHFFLFPAMNDVCFVAKGSALYLFTVEIIVFGSPSLRHNVLSFFYFALPWFKRQCRLKVNFNRLKEIRGIAQVVRKAFFISKTLPCI”, the “soluble on expression in E. coli” value is reported as “soluble”.

Take “MSLASATDSRYGQKESSDQNFDYMFKILIIGNSSVGKTSFLFRYADDSFTPAFVSTVGIDFKVKTIYRNDKRIKLQIWDTAGQERYRTITTAYYRGAMGFILMYDITNEESFNAVQDWSTQIKTYSWDNAQVLLVGNKCDMEDERVVSSERGRQLADHLGFEFFEASAKDNINVKQTFERLVDVICEKMSESLDTADPAVTGAKQGPQLSDQQVPPHQDCACEGHHHHHH”: the “soluble on expression in E. coli” value is “soluble”.

With “MSDTLLLTVLLRHDQSKNLDEIQARMKAMDWWERFPGEGVEIVSWTVAMGLGQIVTLRLPPALLPRVNVELERSAWGVFRTECYPTYDFVPVRETIRERVRTGGQ”, the “soluble on expression in E. coli” value is “not soluble”.
